Patent publication US20240117074A1 (published 2024)

How the values were obtained:
[1] = target: T1, human CEACAM6, recombinant soluble (hCEACAM-6, R&D Systems #3934-CM-050) (human, UniProt P40199 35-320); assay: ELISA, coated CEACAM family protein
T1 sequence (looked up): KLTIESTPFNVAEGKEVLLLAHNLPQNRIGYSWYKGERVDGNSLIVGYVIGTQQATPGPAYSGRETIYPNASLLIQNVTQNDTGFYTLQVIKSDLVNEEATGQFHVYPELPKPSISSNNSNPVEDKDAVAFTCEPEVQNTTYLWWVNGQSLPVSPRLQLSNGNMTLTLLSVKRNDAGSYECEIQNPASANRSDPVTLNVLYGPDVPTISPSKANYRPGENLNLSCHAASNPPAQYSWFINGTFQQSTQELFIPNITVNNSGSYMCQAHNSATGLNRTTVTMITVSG
Experimental: (§1) 96-well plates were coated with 0.5 μg/mL antigen, hCEACAM-1 (2244-CM-050, R&D Systems), hCEACAM-5 (4128-CM-050, R&D Systems), hCEACAM-6 (3934-CM-050, R&D Systems) or CEACAM-8 (9639-CM-050, R&D Systems) in PBS over night at 4° C. After washing in PBS/0.05% Tween 20 (PBST), the plates were blocked with PBST, 2% BSA for at least 30 minutes at room temperature before a second round of washing. RUBY bsAbs, diluted in PBST, 0.5% BSA, were then added and allowed to bind for at least 1 hour at room temperature. […] Finally, a final round of washing was performed and bound complexes detected using SuperSignal Pico Luminescent as substrate and luminescence signals were measured using Fluostar Optima.

[2] = target: T2, CEACAM8, recombinant soluble (CEACAM-8, R&D Systems #9639-CM-050) (UniProt P31997 35-320, limits assumed); assay: ELISA, coated CEACAM family protein
T2 sequence (looked up): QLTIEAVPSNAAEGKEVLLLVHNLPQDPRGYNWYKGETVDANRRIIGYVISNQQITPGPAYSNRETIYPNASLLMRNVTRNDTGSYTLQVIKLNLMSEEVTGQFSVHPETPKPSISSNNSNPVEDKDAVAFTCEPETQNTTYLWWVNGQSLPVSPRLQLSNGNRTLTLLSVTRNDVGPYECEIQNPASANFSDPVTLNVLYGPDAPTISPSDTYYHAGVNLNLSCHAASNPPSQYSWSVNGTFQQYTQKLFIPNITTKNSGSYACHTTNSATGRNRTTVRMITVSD
Experimental: as §1

[3] = target: T3, human CEACAM1, recombinant soluble (hCEACAM-1, R&D Systems #2244-CM-050) (human, UniProt P13688 35-428); assay: ELISA, coated CEACAM family protein
T3 sequence (looked up): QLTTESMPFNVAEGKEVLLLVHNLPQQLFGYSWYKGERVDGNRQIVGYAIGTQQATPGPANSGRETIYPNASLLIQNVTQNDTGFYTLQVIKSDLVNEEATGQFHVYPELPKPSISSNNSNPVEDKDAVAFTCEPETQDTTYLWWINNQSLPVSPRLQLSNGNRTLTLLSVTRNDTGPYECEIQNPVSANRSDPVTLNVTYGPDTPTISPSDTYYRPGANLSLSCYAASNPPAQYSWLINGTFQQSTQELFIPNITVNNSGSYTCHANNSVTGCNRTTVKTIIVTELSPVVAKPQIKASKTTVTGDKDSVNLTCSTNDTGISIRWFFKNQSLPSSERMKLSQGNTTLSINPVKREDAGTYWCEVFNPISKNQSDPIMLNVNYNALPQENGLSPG
Experimental: as §1

[4] = target: T4, biotinylated human CD40-mouse Fc (Ancell #504-030) (human, UniProt P25942 21-193, biotinylated); assay: dual target ELISA: CEACAM5 coated, biotinylated hCD40-muIg detection
T4 construct: Bought fusion protein; also called hCD40-muIg; CD40mFc-biotin; not shown: mouse Ig Fc of the bought fusion protein
T4 sequence (P25942 21-193): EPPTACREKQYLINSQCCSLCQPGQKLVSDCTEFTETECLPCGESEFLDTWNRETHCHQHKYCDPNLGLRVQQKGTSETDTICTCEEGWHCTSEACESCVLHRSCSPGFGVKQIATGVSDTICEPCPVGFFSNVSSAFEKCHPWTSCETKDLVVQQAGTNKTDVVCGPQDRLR
Experimental: ELISA plates were coated with human EpCAM, bsAb was added followed by detection using goat anti human-kappa light chain-HRP.
as §1

- binding result [1]: no binding
- binding result [2]: no binding
- binding result [3]: no binding
- binding result [4]: binds
B1: Multi48 (bispecific antibody)
heavy 1: not shown
light: DIQMTQSPSSLSASVGDRVTITCRASQSISSYLNWYQEKPGKAPKLLIYAASSLQSGVPSRFSGSGSGTDFTLTISSLQPEDFATYYCQQYGRNPPTFGQGTKLEIKRTVAAPSVFIFPPSDEQLKSGTASVVCYLNNFYPREAKVQWKVDNALQSGNSQESVTEQDSKDSTYSLWSTLTLSKADYEKHKVYACEVTHQGLSSPVTKSFNRGEC
heavy 2: EVQLLESGGGLVQPGGSLRLSCAASGFTFGDHAMSWVREAPGKGLEWVSAISGYGHSTGYADSVKGRFTISRDNSKNTLYLQMNSLRAEDTAVYYCARNHYRVGLDYWGQGTLVTVSSASTKGPSVFPLAPSSKSTSGGTAALGCLVKDYFPEPVTVSWNSGALTSGVHTFPAVLQSSGLYSLTSVVEVPSSSLGTQTYICNVNHKPSNTKVDKKVEPKSC
notes: copies: 2 + 2 + 2
